Assay: soluble on expression in E. coli; label from the status in PepcDB or PDB records

For “MTVLKLSHWRVLAELADGLPQHVSQLARMADMKPQQLNGFWQQMPAHIRGLLRQHDGYWRLVRPLAVFDAEGLRELGERSGFQTALKHECASSNDEILELARIAPDKAHKTICVTHLQSKGRGRQGRKWSHRLGECLMFSFGWVFDRPQYELGSLSPVAAVACRRALSRLGLDVQIKWPNDLVVGRDKLGGILIETVRTGGKTVAVVGIGINFVLPKEVENAASVQSLFQTASRRGNADAAVLLETLLVELDAVLLQYARDGFAPFVAEYQAANRDHGKAVLLLRDGETVFEGTVKGVDGQGVLHLETAEGKQTVVSGEISLRSDDRPVSVPKRRDSERFLLLDGGNSRLKWAWVENGTFATVGSAPYRDLSPLGAEWAEKADGNVRIVGCAVCGEFKKAQVQEQLARKIEWLPSSAQALGIRNHYRHPEEHGSDRWFNALGSRRFSRNACVVVSCGTAVTVDALTDDGHYLGGTIMPGFHLMKESLAVRTANLNRHAGKRYPFPTTTGNAVASGMMDAVCGSVMMMHGRLKEKTGAGKPVDVIITGGGAAKVAEALPPAFLAENTVRVADNLVIYGLLNMIAAEGREYEHI”, which “soluble on expression in E. coli” value is on record?
Its value is “not soluble”.

Which “soluble on expression in E. coli” value does the source give for “MGSDKIHHHHHHMRLFRKEPKAEQLKVIIIGAGEVGYHIAHRLTRENKQVVVVDQQPEALRRVAEALDVQTIRGSGSSPVVLHDAGAEDADIILAVTDSDEINIIACLFANIISPASTKLARIRNEEYTLYRDALAQDILNISMIINPEVEVVKNIDRLLSLPGAVDYSEFADGRIRMVGMRICSGPLVGVRLMNFRTVISDGDVIIAAIVRNDELIIPTGMDEIRADDVVYFVCTESSLESVRNVVAALEDPIRSALIVGGGNIGMRLATLFERKGYHTKLVDRDEERCAVLAEKLNSTIVLHGDGTDQDLLREENAGTMDAVVCLTSDEETNILCSLLAKNMGVRKTVARINKVAYQPLVRAIGIEHSVSPRLSAVNSILHYIRKGKVLSSVAIRGEEAEVMEALAEAQSDIVGRPIHKLSFPKGALVLALVRGTEVVIPSGDTVIEPQDRILILSTRQAVSDVEQALMVKLKAY” here?
The value was “not soluble”.

For “MQPNDITFYQRFEADILAGHKTISIRDDSESHFKAGDILRVGRFEDNQYFCNIEVLSVSPITLDELTQPHAKQENMGLDELKEVIRGIYPNEIIFWVIQFSLKEYFNEEKCVREIIITDRKFN”, which “soluble on expression in E. coli” value is on record?
The value was “soluble”.

With “MGSDKIHHHHHHMYIDGVFSGGGVKGIALAGAYEVLEEKGFRFKRVAGTSAGAIIAAFIASGYTSKEIHALIEEVDGEKLLDQRYSFLPLKMLQWVSIYWRLGLYKGDTIEKWIADLLRAKGIRVFGDLQKGSLRLIASDLTNGTMIVLPDDLARYGLNPDMFPVARAVRMSCSIPYFFEPIKLKTDTGTATVVDGGVLSNFPIWLFSKERKRPVIGVTLAPRERERPKKNIRNAFELFGALFETMKDAHDARHIASRYEQNIIFLPVDDVMATDFHLTQQKKLALIELGKRRTELFLKQWTY” as the sequence, how does the “soluble on expression in E. coli” value read?
Its value is “not soluble”.

For “MVDESKLQCYHKGCGLLFDPKENDNEACTYHPGGPYFHDAYKIWTCCDKKSTDFGTWMNYKGCTRGKHSNEKPVDIVKVAAVKEIRPEKEEDVIVWKGLNKSGKLDSKDATKRIEQNLNVEVTPGATAAIEKKLKEISEAAQSADIQIGAPCRNNGCSTEFDGSKNKENCQHHPGAAIFHEGMKYWSCCNKKTSNFGAFLEQVGCTSGEHKFRNNEIVSKFREDWFSSNGFVTINVYCRGALPETANIVSDGHTVRVSMKHGFGNASVDLDYDLWDEVIPEESRVVIGERKVEISLKQKHGTGWPRLKFDPELDAKNDEEA”, which “soluble on expression in E. coli” value is on record?
Its value is “not soluble”.

For “MAQISGNQTGIGSIHPLLHQNTSDFSEQKFSSVFTGDEFFLRDHVVRGKPVLPGVAYLEMAYAAINQAAGSEIGQDVRIRLNHTVWVQPVVVDRHSAQVDISLFPEEDGKITFDIYSTQEDGDDPVIHSQGSAELASAAETPVADLTEMSRRCGKGKMSPDQFYEEGRSRGMFHGPAFQGIKNVNIGNREVLAQLQLPEIVSGTNEQFVLHPSIMDSALQTATICIMQELTDQKLILPFALEELEVIKGCSSSMWAYARLSDSDHSGGVVQKADIDVIDESGTVCVRIKGFSTRVLEHHHHHH”, which “soluble on expression in E. coli” value is on record?
Its value is “soluble”.

With “LEAPRDLEAKEVTPRTALLTWTEPPVRPAGYLLSFHTPGGQTQEILLPGGITSHQLLGLFPSTSYNARLQAMWGQSLLPPVSTSFTTGGLRI” as the sequence, how does the “soluble on expression in E. coli” value read?
The value was “soluble”.

Which “soluble on expression in E. coli” value does the source give for “MSLSKPLKAIIIGAGISGMVASVRLREMGIEHTIFEKNNEFGGTWWENRYPGCGVDTPNLTYTFSFRPNDWSAFFPLRDEIENYLLETARESGLYDRVRFGTKVERAEWLADRNQWQVTVRAEDGSEEVHHADIVMSAVGILNMPVVPDIKGLSGFAGRVVHTSDWPQDIDLKGKRVAVVGNGASAMQVVPAIADQVAELTIFARSKQWAAPFPQFRKPVPNGVRYLMQVVPLYRAWVEQRLSWTFNDRVHGTLFRDPDWKEPARAVNAINDGHREFFTRYVREELGERQDLLPLVLPDYPPFAKRMLLDNGWYRTLRKPHVKLVPQRLAEVRGHTLVAQDGQEIEADVLILATGFQAANVLGSYDVIGRDGRDLHEFWEGDNAAAYLGTLVPGFPNFFILLGPNVGSGHGGSMIRNIENQAHYATRVIEALVKSGADAVEVREDVYGDYKARIDAAHEKLVWTHPGATNWYRNSRGRVVAITPWRNDAFWRMTREARPEDLSFSGAEGHHHHHH” here?
The value was “soluble”.

Which “soluble on expression in E. coli” value does the source give for “MTKMSITVNQTVLHQLVKNVDGDSIKMESVLRDELLSITPEVEQMMLQLHQSYQNKAKAFGVFQEKSIFAQHLNRLLEQEIEFLGFSQYSTKLLADELGKYNFAESGTLILCQYNFLATDYLFIALLDSRHSMLVDEHLDIRRTEYLDITQFDIAARINLTDLQVNANSNRYLTFIKGRVGRKISDFFMDFLGAEEGLNPQVQNQCLLQAVSDYCDQGELNKEQTQAVKKQVFEYCKGQLSNGNNIELRELSDSLPTLNEQPFVVFTEKQNYGLEESIPPIRSTLKSLTKFSGSGKGVTLSFDAELLNTRIQWDPMTDTLTIKGLPPNLKDQLQKALKSEN” here?
Its value is “not soluble”.

With “MRKYRLSEEQRAFSYQEDGTKKSVLLRQIIAISDFNDVIAGTAGGWIDRETVLAQEGNCWIYDQNAIAFGGTVISGNTRITGTSVLWGEVYATDNVWIDNSEISQGAYISDSVTIHDSLVYVQCRIFGHALIDQHSMIVAAQGLTPDHQLLLQIYDRARVSASRIVHQAQIYGDAVVRYAFIEHRAEVFDFASVEGNEENNVWLCDCAKVYGHAQVKAGIEEDAIPTIHYSSQVAEYAIVEGNCVLKHHVLIGGNAVVRGGPILLDEHVVIQGESRITGAVIIENHVELTDHAVVEAFDGDTVHVRGPKVINGEERITRTPLAGLLLEHHHHHH” as the sequence, how does the “soluble on expression in E. coli” value read?
Its value is “not soluble”.

Which “soluble on expression in E. coli” value does the source give for “MKGPNLTEISKKITDSNAVLLAVKEVEALLSSIDEIAAKAIGKKIHQNNGLDTENNHNGSLLAGAYAISTLIKQKLDGLKNEGLKEKIDAAKKCSETFTNKLKEKHTDLGKEGVTDADAKEAILKTNGTKTKGAEELGKLFESVEVLSKAAKEMLANSVKELTSPVVAESPKKP” here?
Its value is “soluble”.

For “MVLLVMKSSTTIITAYFDIGRGDWTANKGFREKLARSVDVYFSYFERLAALENEMIIFTSPDLKPRVEAIRNGKPTTVIVIDIKKKFRYIRSRIEKIQKDESFTNRLEPRQLKNPEYWSPEYVLVCNLKAYFVNKAINMGLVKTPLVAWIDFGYCRKPNVTRGLKIWDFPFDESKMHLFTIKKGLTVTSQQQVFDFMIGNHVYIIGGAIVGSQHKWKEFYKLVLESQKITLNNNIVDDDQGIFVMCYYKRPDLFNLNYLGRGKWFDLFRCFRSNTLGAKMQALRIFLSRK”, which “soluble on expression in E. coli” value is on record?
Its value is “not soluble”.

With “PSPREQLMESIRKGKELKQSRPPLKKASDRQLGPPRMCEPSPREQLMESIRKGKELKQSRPPLKKASDRQLGPPRMCEPSPREQLMESIRKGKELKQA” as the sequence, how does the “soluble on expression in E. coli” value read?
Its value is “soluble”.

With “VWPTAKQAASLIGLDPKLLVAQAALETGWGRFVTRDADGSSSNNLFNIKTGSHSEVESIQVKTTEYIADTPIKINASFRKYPSIEHSFHDYVSLIKGSERYQMALANAENPEIFVSELNKAGYATDPNYSNKILSIYHGDELNQAIQRCESFEQS” as the sequence, how does the “soluble on expression in E. coli” value read?
The value was “not soluble”.

With “GMNIEKTRFCINRKIAPGLSIEAFFRLVKRLEFNKVELRNDMPSGSVTDDLNYNQVRNLAEKYGLEIVTINAVYPFNQLTEEVVKKTEGLLRDAQGVGARALVLCPLNDGTIVPPEVTVEAIKRLSDLFARYDIQGLVEPLGFRVSSLRSAVWAQQLIREAGSPFKVLLDTFHHHLYEEAEKEFASRIDISAIGLVHLSGVEDTRPTEALADEQRIMLSEKDVMQNYQQVQRLENMGYRGIYAFEPFSSQLASWSEAEIEEQINRSVSLLLQ” as the sequence, how does the “soluble on expression in E. coli” value read?
Its value is “soluble”.

For “MGSDKIHHHHHHMSNRIDHAKAAGAFISKTEHVAFHDRRLWDLREKRDAQAHGIAEWETMRELASGIKEHTLSNLSTYLEQFAAAAEANGVTVHWAATAEEHNALVHQLMSERGMTTLVKSKSMLTDECKMREYLEPRGITVMETDLGERIQQLDHQDPSHMVVPAVHKLRADVAELFGRTIGTDPKNSDIHYLAESQRMNTRPYFVREKTAGMTGCNFAVAETGTVVVCTNEGNADLSANVPPLHIASIGIEKLIPKVSDLGVFIRMLSRSALGSPITQYTSHFRAPRKGTEMHFILVDHGRSERLAMEDFWYSLKCIRCGACMNTCPVYRRSGGLSYGGTYSGPIGAIINPTFDLKRYSALPFASTLNGSCTNVCPVKINIHEQIYKWRTVIAGHHEVPFVKQEVLKMAGRLLASPTLYRATVSSMGSALRRLPNFVLYNPLNIWGKQRELPEAPKLTFHAWYKKNRGADHDNA”, which “soluble on expression in E. coli” value is on record?
The value was “not soluble”.

For “HRCVALCIETRPDYCGEKEINQMLKLGATRVELGVQTIYNEILEFCKRGHTVEDTIKATQLLKDSGLKVSYHLMPGMPGSDMEMDKKMFKEIFENPDFKPDMVKIYPCLVIEGTELYEMWKRGEYKPYREEEAIEIISYAKSIMPKWV”, which “soluble on expression in E. coli” value is on record?
Its value is “not soluble”.

For “MSLKLWKNATFYQMTAEGDQVSAVLTENGQICAVGEAMDLEKQYVANITETIDLEGKVVFPGFVDAHIHLLWYGQALERLNLNQTTTKKEALALIAERTKQIASDEWLFVEGYDENKWSDEQTLISLADLDEVSQTNPILVRRIDYHSVSINSALQEKIADFSETGFDGGGEIVRDKTGEFIGVLRDNATTMAIDSFPAATPSELSAWLEIAITDLWSKGITGAHSEDLHYFTGFASTLAAFRNTIGSNKMPFRAHLLVHHAELAAFSASNESFVSGDAFLELGAMKIFYDGTVGSRTALMSAGYADNPSEKGLQIHSDQAFEDLVKAARKAGLPVAIHILGDQAFANVIRTLRANPPKEGQYDRLIHTPWLTEALIEEATGLPVLFDIQPQFMASDLPWALEVLGDNHPPLAFAWKTLLQAGFPLAGGSDAPIEVPNPFWGIHAAVTRTANADLDGVGYWPEQALTVFEAIQLYTKGAAFASYKTTTRGQIAPGFVADFTILAEDPFQMKQAELRQVSVVMTVVNEQIVYQKKEGHHHHHH”, which “soluble on expression in E. coli” value is on record?
Its value is “soluble”.

With “MGSDKIHHHHHHMLDNSIPTDSCLVSGATVSTDIETLYCNHHDWLQVWLRRRLSSAVDASDLAHDTFVRVLVSGRMPNAEQSRAFLTQIAKGLAVDLYRRRAIEEAYLAALAQLPENLAPSAEERVLALQVLLLLDTALGSLPSRVREVFLLSRLDGLTYSDIAQRRGISVATVRKYMLRAAQACHCVLNSPTGTAP” as the sequence, how does the “soluble on expression in E. coli” value read?
Its value is “not soluble”.

With “MGSDKIHHHHHHMTKITVLSGKGGTGKTTVSVNMAKALSESYRVQLLDADVEEPNDHIFFNVDVSFEEPVHLMIPVVDNSVCIRCGECASTCQFGAISVFPSGTFVFESLCHGCGACSIMCPVNAISERPKEIGKIRFGTADGNISFGMGILNIGERTGVPVIRKLKKHIDEKADVVIVDAPPGTSCPVVESLRNTDFALLVTEPTAFGLHDLKLAVELTKEMGIPSGIVVNRYIPGNTIIEEFADEEGIPVLLKIPFKREIASLCAEGKLIVEAFQDMKKDFLELFEKIEVMVR” as the sequence, how does the “soluble on expression in E. coli” value read?
Its value is “not soluble”.

From the DeepSol protein solubility set
